Laboratory results reported in CN117025546A.

Legend:
[1] = target: GST标签蛋白 (Schistosoma japonicum (Blood fluke)) [GST: P08515]; assay: indirect ELISA, GST tag protein coated at 10000 to 0.64 ng/mL, antibody at 1 μg/mL
[2] = target: GST标签蛋白 (Schistosoma japonicum (Blood fluke)) [GST: P08515]; assay: indirect ELISA, GST tag protein coated in dilution series, antibody at 1 μg/mL

亲和力 [1]: 20 ng/mL | OD (450nm) at antigen 20ng/ml [2]: 1 OD
B1: 抗GST单克隆抗体 (杂交瘤细胞株62H9分泌, CCTCC NO:C2021187) (antibody, V domains shown)
VH: EVQLQESGPELVKPGASVRMSCKASGYTFTSYFMHWVKQKSGQGLEWIGYINPYHDGTNYNEKFKGKATLTSDKSSSTAYMELSSLTSEDSAVYSCARSQRLHWYFDVWGAGTTVTVSS
VL: DIVLTQSPTSLAVSLGQRATISCRASQGVSASSYSYIHWYQQKPGQPPKLLIKYASNLESGVPARFSGSGSGTDFTLNVHPVEEEDTATYYCQHSWEIPLTFGGGTKLEIK
